# Test results taken from PMC10786891, “Massively parallel profiling of RNA-targeting CRISPR-Cas13d”.
# T1: EsCas13d, nuclease-dead (Eubacterium siraeum, UniProt B0MS50, R295A;H300A;R849A;H854A)
# T1 sequence: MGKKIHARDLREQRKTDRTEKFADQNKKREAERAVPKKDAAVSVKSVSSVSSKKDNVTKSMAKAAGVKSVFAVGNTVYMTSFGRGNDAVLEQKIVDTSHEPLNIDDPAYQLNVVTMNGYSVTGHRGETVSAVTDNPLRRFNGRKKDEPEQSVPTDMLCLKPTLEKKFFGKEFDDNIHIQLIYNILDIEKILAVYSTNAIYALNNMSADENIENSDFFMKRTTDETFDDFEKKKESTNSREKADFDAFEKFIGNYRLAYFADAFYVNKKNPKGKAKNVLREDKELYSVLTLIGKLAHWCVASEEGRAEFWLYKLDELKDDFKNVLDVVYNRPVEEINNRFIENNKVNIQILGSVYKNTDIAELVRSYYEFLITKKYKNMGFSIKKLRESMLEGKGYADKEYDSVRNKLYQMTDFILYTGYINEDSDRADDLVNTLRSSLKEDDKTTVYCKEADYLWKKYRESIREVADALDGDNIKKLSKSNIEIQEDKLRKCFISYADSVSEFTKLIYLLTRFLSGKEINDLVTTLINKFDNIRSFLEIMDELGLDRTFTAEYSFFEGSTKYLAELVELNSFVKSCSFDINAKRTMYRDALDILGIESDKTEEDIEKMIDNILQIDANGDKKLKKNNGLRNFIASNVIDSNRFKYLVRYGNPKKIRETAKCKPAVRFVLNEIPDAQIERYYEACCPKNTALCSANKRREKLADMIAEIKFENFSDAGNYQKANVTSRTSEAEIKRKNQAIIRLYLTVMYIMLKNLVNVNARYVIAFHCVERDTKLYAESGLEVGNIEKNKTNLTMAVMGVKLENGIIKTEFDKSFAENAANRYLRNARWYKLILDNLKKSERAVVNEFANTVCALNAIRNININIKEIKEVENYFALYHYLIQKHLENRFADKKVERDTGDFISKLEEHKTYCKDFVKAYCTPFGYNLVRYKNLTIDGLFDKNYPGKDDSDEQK
# Target: T1, EsCas13d, nuclease-dead
# Experiment: crRNA (strand 1, pre-loaded); Mg2+; 40 mM Tris-HCl pH 7.5, 150 mM NaCl, 6 mM MgCl2, 1 mM DTT, 0.1% Tween-20, 0.2 mg/ml BSA; 25 C; 10 min per concentration, then washed
# Settings: tags: His6-TwinStrep-SUMO cleaved; N-terminal SNAP kept (SNAP-Surface 488); label: 3' end held by stalled T7 RNA polymerase
row,Binder,Kd [µM]
1,target 1 MT 5'PFS GGC 3'PFS CUA (mixed) RNA 1: CACCCGUGCAAAAAUGCAGGGGUCUAAAACUGAGCGGAUAACCUCUCUAUGG RNA 2: GGGAAUGGAUCCACAUCUACGAAUUCGGCCCAUAGAGAGGUUAUCCGCUCACUAAGAUCGGAAGAGCACACGU,0.0152 ± 0.00425
2,target 1 MT 5'PFS GCU 3'PFS UGA (mixed) RNA 1: CACCCGUGCAAAAAUGCAGGGGUCUAAAACUGAGCGGAUAACCUCUCUAUGG RNA 2: GGGAAUGGAUCCACAUCUACGAAUUCGCUCCAUAGAGAGGUUAUCCGCUCAUGAAGAUCGGAAGAGCACACGU,0.1 ± 0.04
3,"target 1 insU 3' of 7,insA 3' of 3 (mixed) RNA 1: CACCCGUGCAAAAAUGCAGGGGUCUAAAACUGAGCGGAUAACCUCUCUAUGG RNA 2: GGGAAUGGAUCCACAUCUACGAAUUCGUACCAUAGAGAGGUUAUCUCGCUACACCGAGAUCGGAAGAGCACACGU",0.0204 ± 0.0013
4,target 1 MT 5'PFS GCU 3'PFS UGC (mixed) RNA 1: CACCCGUGCAAAAAUGCAGGGGUCUAAAACUGAGCGGAUAACCUCUCUAUGG RNA 2: GGGAAUGGAUCCACAUCUACGAAUUCGCUCCAUAGAGAGGUUAUCCGCUCAUGCAGAUCGGAAGAGCACACGU,0.038 ± 0.007
5,target 1 MT 5'PFS CUU 3'PFS AAA (mixed) RNA 1: CACCCGUGCAAAAAUGCAGGGGUCUAAAACUGAGCGGAUAACCUCUCUAUGG RNA 2: GGGAAUGGAUCCACAUCUACGAAUUCCUUCCAUAGAGAGGUUAUCCGCUCAAAAAGAUCGGAAGAGCACACGU,~0.07
6,target 1 MT 5'PFS GGG 3'PFS ACC (mixed) RNA 1: CACCCGUGCAAAAAUGCAGGGGUCUAAAACUGAGCGGAUAACCUCUCUAUGG RNA 2: GGGAAUGGAUCCACAUCUACGAAUUCGGGCCAUAGAGAGGUUAUCCGCUCAACCAGAUCGGAAGAGCACACGU,0.0255 ± 0.0085
7,target 1 MT 5'PFS UCA 3'PFS UGU (mixed) RNA 1: CACCCGUGCAAAAAUGCAGGGGUCUAAAACUGAGCGGAUAACCUCUCUAUGG RNA 2: GGGAAUGGAUCCACAUCUACGAAUUCUCACCAUAGAGAGGUUAUCCGCUCAUGUAGAUCGGAAGAGCACACGU,0.0285 ± 0.005
8,target 1 MT 5'PFS UAU 3'PFS ACA (mixed) RNA 1: CACCCGUGCAAAAAUGCAGGGGUCUAAAACUGAGCGGAUAACCUCUCUAUGG RNA 2: GGGAAUGGAUCCACAUCUACGAAUUCUAUCCAUAGAGAGGUUAUCCGCUCAACAAGAUCGGAAGAGCACACGU,0.054 ± 0.0205
9,target 1 MT 5'PFS UAU 3'PFS ACU (mixed) RNA 1: CACCCGUGCAAAAAUGCAGGGGUCUAAAACUGAGCGGAUAACCUCUCUAUGG RNA 2: GGGAAUGGAUCCACAUCUACGAAUUCUAUCCAUAGAGAGGUUAUCCGCUCAACUAGAUCGGAAGAGCACACGU,0.029 ± 0.005
10,target 1 MT 5'PFS GCC 3'PFS CAC (mixed) RNA 1: CACCCGUGCAAAAAUGCAGGGGUCUAAAACUGAGCGGAUAACCUCUCUAUGG RNA 2: GGGAAUGGAUCCACAUCUACGAAUUCGCCCCAUAGAGAGGUUAUCCGCUCACACAGAUCGGAAGAGCACACGU,~0.034
11,target 1 MT 5'PFS GCC 3'PFS ACG (mixed) RNA 1: CACCCGUGCAAAAAUGCAGGGGUCUAAAACUGAGCGGAUAACCUCUCUAUGG RNA 2: GGGAAUGGAUCCACAUCUACGAAUUCGCCCCAUAGAGAGGUUAUCCGCUCAACGAGAUCGGAAGAGCACACGU,0.0139 ± 0.0037
12,target 1 MT 5'PFS UAU 3'PFS ACC (mixed) RNA 1: CACCCGUGCAAAAAUGCAGGGGUCUAAAACUGAGCGGAUAACCUCUCUAUGG RNA 2: GGGAAUGGAUCCACAUCUACGAAUUCUAUCCAUAGAGAGGUUAUCCGCUCAACCAGAUCGGAAGAGCACACGU,0.036 ± 0.015
13,target 1 MT 5'PFS UAG 3'PFS AGU (mixed) RNA 1: CACCCGUGCAAAAAUGCAGGGGUCUAAAACUGAGCGGAUAACCUCUCUAUGG RNA 2: GGGAAUGGAUCCACAUCUACGAAUUCUAGCCAUAGAGAGGUUAUCCGCUCAAGUAGAUCGGAAGAGCACACGU,0.0565 ± 0.016
14,target 1 MT 5'PFS GGG 3'PFS CCC (mixed) RNA 1: CACCCGUGCAAAAAUGCAGGGGUCUAAAACUGAGCGGAUAACCUCUCUAUGG RNA 2: GGGAAUGGAUCCACAUCUACGAAUUCGGGCCAUAGAGAGGUUAUCCGCUCACCCAGAUCGGAAGAGCACACGU,~0.05
15,target 1 MT 5'PFS AGU 3'PFS UUG (mixed) RNA 1: CACCCGUGCAAAAAUGCAGGGGUCUAAAACUGAGCGGAUAACCUCUCUAUGG RNA 2: GGGAAUGGAUCCACAUCUACGAAUUCAGUCCAUAGAGAGGUUAUCCGCUCAUUGAGAUCGGAAGAGCACACGU,0.047 ± 0.017
16,target 1 MT 5'PFS GCC 3'PFS CAU (mixed) RNA 1: CACCCGUGCAAAAAUGCAGGGGUCUAAAACUGAGCGGAUAACCUCUCUAUGG RNA 2: GGGAAUGGAUCCACAUCUACGAAUUCGCCCCAUAGAGAGGUUAUCCGCUCACAUAGAUCGGAAGAGCACACGU,~0.012
17,target 1 MT 5'PFS GUC 3'PFS UUU (mixed) RNA 1: CACCCGUGCAAAAAUGCAGGGGUCUAAAACUGAGCGGAUAACCUCUCUAUGG RNA 2: GGGAAUGGAUCCACAUCUACGAAUUCGUCCCAUAGAGAGGUUAUCCGCUCAUUUAGAUCGGAAGAGCACACGU,0.0151 ± 0.0043
18,target 1 MT 5'PFS GCU 3'PFS AAU (mixed) RNA 1: CACCCGUGCAAAAAUGCAGGGGUCUAAAACUGAGCGGAUAACCUCUCUAUGG RNA 2: GGGAAUGGAUCCACAUCUACGAAUUCGCUCCAUAGAGAGGUUAUCCGCUCAAAUAGAUCGGAAGAGCACACGU,~0.0825
19,target 1 MT 5'PFS UAG 3'PFS AGA (mixed) RNA 1: CACCCGUGCAAAAAUGCAGGGGUCUAAAACUGAGCGGAUAACCUCUCUAUGG RNA 2: GGGAAUGGAUCCACAUCUACGAAUUCUAGCCAUAGAGAGGUUAUCCGCUCAAGAAGAUCGGAAGAGCACACGU,0.03 ± 0.0055
20,target 1 MT 5'PFS GGG 3'PFS CCU (mixed) RNA 1: CACCCGUGCAAAAAUGCAGGGGUCUAAAACUGAGCGGAUAACCUCUCUAUGG RNA 2: GGGAAUGGAUCCACAUCUACGAAUUCGGGCCAUAGAGAGGUUAUCCGCUCACCUAGAUCGGAAGAGCACACGU,0.0185 ± 0.007
21,target 1 MT 5'PFS GCU 3'PFS AAC (mixed) RNA 1: CACCCGUGCAAAAAUGCAGGGGUCUAAAACUGAGCGGAUAACCUCUCUAUGG RNA 2: GGGAAUGGAUCCACAUCUACGAAUUCGCUCCAUAGAGAGGUUAUCCGCUCAAACAGAUCGGAAGAGCACACGU,~0.08
22,target 1 MT 5'PFS GGG 3'PFS CCG (mixed) RNA 1: CACCCGUGCAAAAAUGCAGGGGUCUAAAACUGAGCGGAUAACCUCUCUAUGG RNA 2: GGGAAUGGAUCCACAUCUACGAAUUCGGGCCAUAGAGAGGUUAUCCGCUCACCGAGAUCGGAAGAGCACACGU,0.0151 ± 0.00345
23,"target 1 A9G,U10G (mixed) RNA 1: CACCCGUGCAAAAAUGCAGGGGUCUAAAACUGAGCGGAUAACCUCUCUAUGG RNA 2: GGGAAUGGAUCCACAUCUACGAAUUCGUACCAUAGAGAGGUGGUCCGCUCACCGAGAUCGGAAGAGCACACGU",0.037 ± 0.004
24,target 1 MT 5'PFS GGC 3'PFS CUG (mixed) RNA 1: CACCCGUGCAAAAAUGCAGGGGUCUAAAACUGAGCGGAUAACCUCUCUAUGG RNA 2: GGGAAUGGAUCCACAUCUACGAAUUCGGCCCAUAGAGAGGUUAUCCGCUCACUGAGAUCGGAAGAGCACACGU,0.0173 ± 0.004
